The source of these data is paper PMC7949108, “Medulloblastoma-associated mutations in the DEAD-box RNA helicase DDX3X/DED1 cause specific defects in translation”.

Among the targets are Ded1 wild-type (Saccharomyces cerevisiae, UniProt P06634 1-604); Ded1-S371F (Saccharomyces cerevisiae, UniProt P06634 1-604, S371F); Ded1-G488A (Saccharomyces cerevisiae, UniProt P06634 1-604, G488A); Ded1-M339I (Saccharomyces cerevisiae, UniProt P06634 1-604, M339I).
Holding throughout (assay): fluorescence anisotropy; 2 mM ADP-BeFx; 20 mM HEPES pH 7.5, 40 mM NaCl, 20% glycerol, 2 mM ADP-BeFx; 2 nM RNA, 0-400 nM protein, 30 min; temperature not stated
What all share (settings): protein: recombinant; tags: His (pET28a); label: 5' 6-carboxyfluorescein; single strand

Ded1 wild-type, sequence (P06634 whole entry): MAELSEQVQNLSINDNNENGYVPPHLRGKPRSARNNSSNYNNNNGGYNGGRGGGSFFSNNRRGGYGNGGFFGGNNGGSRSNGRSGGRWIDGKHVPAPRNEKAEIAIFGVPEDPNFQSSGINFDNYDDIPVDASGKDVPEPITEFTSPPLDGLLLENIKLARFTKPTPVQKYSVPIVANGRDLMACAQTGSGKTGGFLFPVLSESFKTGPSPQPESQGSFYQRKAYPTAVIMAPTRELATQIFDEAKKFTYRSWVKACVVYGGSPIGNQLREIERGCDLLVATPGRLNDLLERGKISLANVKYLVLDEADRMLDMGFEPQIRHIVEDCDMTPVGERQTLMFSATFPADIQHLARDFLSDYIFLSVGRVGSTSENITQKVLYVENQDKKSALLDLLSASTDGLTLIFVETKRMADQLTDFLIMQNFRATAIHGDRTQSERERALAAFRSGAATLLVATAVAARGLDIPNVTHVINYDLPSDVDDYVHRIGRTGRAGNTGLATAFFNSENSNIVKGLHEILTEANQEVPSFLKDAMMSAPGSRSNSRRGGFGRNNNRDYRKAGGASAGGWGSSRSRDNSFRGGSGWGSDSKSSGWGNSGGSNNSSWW
Ded1-G488A, sequence (P06634 whole entry G488A): as the sequence (P06634 whole entry) above, with G488A counted along it
Ded1-M339I, sequence (P06634 whole entry M339I): as the sequence (P06634 whole entry) above, with M339I counted along it
Ded1-S371F, sequence (P06634 whole entry S371F): as the sequence (P06634 whole entry) above, with S371F counted along it

As usually defined, the Kd is the constant that tells how readily two partners part at equilibrium. On to AGCACCGUAAAGACGC (ssRNA) [16-mer RNA oligomer], for which the dissociation constant Kd worked out at 13 nM with Ded1 wild-type, 11 nM in the data set with Ded1-S371F, 78 nM in the data set with Ded1-G488A and 110 nM with Ded1-M339I.
